Test results from the supplement of paper PMC11908140.

B1: library; numbered along this chain (parent)
chain: MRKPRAAVGSGHRKQAASQEGRQKHAKNNSQAKPSACDGLARQPEEVVLQASVSSYHLFRDVAEVTAFRGSLLSWYDQEKRDLPWRRRAEDEMDLDRRAYAVWVSEVMLQQTQVATVINYYTGWMQKWPTLQDLASASLEEVNQLWAGLGYYSRGRRLQEGARKVVEELGGHMPRTAETLQQLLPGVGRYTAGAIASIAFGQATGVVDGNVARVLCRVRAIGADPSSTLVSQQLWGLAQQLVDPARPGDFNQAAMELGATVCTPQRPLCSQCPVESLCRARQRVEQEQLLASGSLSGSPDVEECAPNTGQCHLCLPPSEPWDQTLGVVNFPRKASRKPPREESSATCVLEQPGALGAQILLVQRPNSGLLAGLWEFPSVTWEPSEQLQRKALLQELQRWAGPLPATHLRHLGEVVHTFSHIKLTYQVYGLALEGQTPVTTVPPGARWLTQEEFHTAAVSTAMKKVFRVYQGQQPGTCMGSKRSQVSSPCSRKKPRMGQQVLDNFFRSHISTDAHSLNSAAQ

Variants of: B1
Assay: 8OG:A repair function score (normalized; synonymous = 0, nonsense = -1) (normalized log-likelihood score); higher = more repair activity (WT-like)
Settings: with 8OG:A DNA repair reporter (GFP) in HEK-293 MUTYH KO cells
Experimental: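 Saturation mutagenesis (NNN codon scan) of the MUTYH cDNA (521-aa nuclear isoform NM_001048174.1 / NP_001041639), stably expressed under doxycycline induction in HEK-293 MUTYH knockout cells. Cells were co-transfected with an 8OG:A-bearing GFP repair reporter plus mCherry and sorted 72 h later into GFP+ and GFP− bins, three replicates per tile. The Rosace log2 enrichment (GFP+ vs GFP−) was converted per tile to a normalized function score with synonymous variants centered at 0 and nonsense variants (codons 1-471) at -1; low-abundance variants were removed.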

8OG:A repair function score: each site, then its substitutions
D82: F -0.22, L -0.0723, P -0.00741, Y -0.0661, N 0.00375, C -0.0489, E -0.035, R -0.0624, S -0.0969, I -0.0384, M -0.077, A -0.0548, H -0.148, Q -0.0442, T -0.0186, G -0.0955, K -0.079, W -0.00177, V -0.0236
P84: T -0.154, C -0.445, Y -0.697, R -1.06, F -0.723, V -0.206, L -0.233, D -0.332, S -0.324, N -0.796, E -0.125, Q -0.242, W -1.29, M -1.8, K -0.876, G -0.775, I -0.257, A -0.138, H -0.482
M93: Y -0.0084, E 0.0066, W -0.00669, L -0.0284, R 0.00556, H -0.01, I -0.0705, C 0.00101, T 0.00168, N 0.00661, Q 0.00486, P -0.0336, F 0.00598, S -0.0236, A 0.00637, D 0.0046, V 0.00114, G -0.0185, K 0.00623
A89: R -0.0424, M 0.00504, Y -0.00929, W -0.0308, V 0.00684, S 0.00694, E -0.00662, N -0.00625, I -0.0304, C -0.0299, L 0.00692, F -0.0315, P -0.00485, D -0.0385, K -0.0427, Q -0.0663, T -0.00868, G -0.0247, H 0.00693
D94: Q -0.215, F -0.287, W -1, Y -0.33, M -0.104, H -0.136, C -0.112, T -0.178, G -0.231, E -0.625, L -0.105, P -0.157, R -0.182, V -0.128, A -0.329, S -0.0913, I -0.0559, N -0.0146, K -0.193
R81: F -1.5, H -0.3, C -1.02, P -0.88, V -0.851, D -0.524, Q -0.483, A -0.345, W -0.422, Y -0.359, K -0.209, G -0.905, L -0.31, N -0.365, S -0.535, E -0.678, T -0.765, I -0.704, M -0.492
E92: W -0.152, F -0.016, P -0.0511, L -0.011, R -0.0994, G -0.183, H -0.0814, I -0.0645, V -0.0677, N -0.0998, M -0.0276, T -0.112, A -0.0671, S -0.0176, K -0.0744, D -0.0315, Y -0.0538, C -0.0208, Q -0.0495
K80: A -7.55e-05, Y -0.271, L -0.278, S -0.227, W -0.847, Q -0.0315, F -0.364, M -0.162, N -0.162, R -0.0152, E -0.31, H 0.00371, V -0.423, D -1.37, P -0.105, C -0.0206, I -0.35, G -0.194, T -0.469
L83: E -0.902, W -0.827, K -0.987, G -0.971, F -0.285, Q -0.947, M -0.533, S -0.387, R -0.559, V -0.316, T -0.104, H -0.597, N -0.585, Y -0.478, A -0.379, D -1.02, C -0.323, P -0.673, I -0.196
E79: L -0.0186, K 0.0062, M -0.00235, R 0.00654, G -0.00351, S -0.00165, Y -0.00762, N -0.0384, I 0.00691, W -0.0018, T 0.00587, F 0.000542, H -0.0574, V -0.000865, P -0.189, Q -0.0185
L95: Y -0.0972, I -0.0112, N -8.88e-05, W -0.127, Q -0.0116, V -0.00351, P -0.00578, D 0.00648, H -0.053, K -0.0064, M 0.0014, G 0.00593, S -0.00398, R -0.104, C -0.0111, F -0.0596, T -0.0603, E -0.00548, A 0.00636
D91: A 0.0065, H 0.0064, C -0.0114, E -0.0053, K 0.00215, V 0.0064, Q -0.103, P -0.0949, S -0.00182, Y 0.00276, G -0.00708, I 0.00656, R 0.00216, L 0.00629, W -0.00643, M 0.00436, F 0.00319, T -0.0112, N -0.0978
E90: W -0.0857, T -0.0178, L 0.0056, A 0.00572, D 0.000961, Q -0.0474, Y -0.107, H -0.0294, V 0.0003, F -0.0713, C -0.00217, K 0.00313, M 0.0018, G 0.00689, N -0.0107, I -0.0086, S -0.0214, P -0.164, R 0.0046
D96: H -0.132, P -0.177, N -0.00561, G -0.0459, K -0.758, L -0.43, M -0.441, Q -0.0411, F -0.446, E -0.143, C -0.291, R -0.506, I -0.341, A -0.536
R88: S -0.00167, F -0.00866, Q -0.0232, G -0.107, C -0.0122, K -0.364, L 0.00676, E -0.00364, M -0.0202, D -0.0653, A 0.00657, T 0.00666, V -0.0028, Y -0.0224, W -0.0355, I 0.00568, P -0.00404, N -0.0146, H 0.0048
W85: V -1.12, S -1.22, Y -0.864, D -1.51, I -0.792, T -1.61, P -1.05, M -0.682, Q -1.14, C -1.57, A -1.08, E -1.28, L -0.917, N -1.55, K -3, H -2.53, G -2.15, F -0.238, R -1.51
R86: A -0.934, P -0.841, K -0.756, V -1.33, N -1.17, I -0.915, Y -1.03, D -1.26, T -0.606, W -1.23, S -1.03, H -1.85, M -1.93, F -1.75, E -2.16, L -0.926, C -0.587, G -1.82, Q -2.68
R87: S 0.00689, L -0.0416, N -0.000681, V -0.0326, M -0.0864, P -0.0432, A -0.0289, I -0.0226, T -0.0213, E -0.0603, K 0.00471, D -0.0278, F -0.0196, Y -0.052, H -0.0676, G -0.0274, Q -0.219, C -0.0638, W -0.0564
